Measured values published in article PMC8930183, “Structure of the Pf12 and Pf41 heterodimeric complex of Plasmodium falciparum 6-cysteine proteins” (FEMS Microbes, 2022).

T1: Pf41 D1D2 H336A (Plasmodium falciparum, UniProt Q8I1Y0 21-368, H336 to alanine)
T1 construct: Pf41, Plasmodium falciparum, residues K21-S368 (D1D2); source: Spodoptera frugiperda 21 cells, purified (Ni-IMAC, TEV cleavage, SEC); not shown: His8, N-terminal, cleaved
T1 sequence: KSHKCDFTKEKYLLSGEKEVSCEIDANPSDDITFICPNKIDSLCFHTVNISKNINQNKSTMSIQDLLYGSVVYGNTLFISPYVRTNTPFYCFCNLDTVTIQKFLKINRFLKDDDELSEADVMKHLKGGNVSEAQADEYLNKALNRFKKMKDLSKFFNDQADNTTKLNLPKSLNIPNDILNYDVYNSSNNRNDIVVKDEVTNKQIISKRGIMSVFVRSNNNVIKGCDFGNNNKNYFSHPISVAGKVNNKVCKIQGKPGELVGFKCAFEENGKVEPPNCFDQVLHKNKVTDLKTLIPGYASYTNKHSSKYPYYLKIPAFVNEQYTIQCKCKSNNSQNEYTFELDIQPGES

T2: Pf41 D1D2 N339A (Plasmodium falciparum, UniProt Q8I1Y0 21-368, N339A)
T2 construct: Pf41, Plasmodium falciparum, residues K21-S368 (D1D2); source: Spodoptera frugiperda 21 cells, purified (Ni-IMAC, TEV cleavage, SEC); not shown: His8, N-terminal, cleaved
T2 sequence: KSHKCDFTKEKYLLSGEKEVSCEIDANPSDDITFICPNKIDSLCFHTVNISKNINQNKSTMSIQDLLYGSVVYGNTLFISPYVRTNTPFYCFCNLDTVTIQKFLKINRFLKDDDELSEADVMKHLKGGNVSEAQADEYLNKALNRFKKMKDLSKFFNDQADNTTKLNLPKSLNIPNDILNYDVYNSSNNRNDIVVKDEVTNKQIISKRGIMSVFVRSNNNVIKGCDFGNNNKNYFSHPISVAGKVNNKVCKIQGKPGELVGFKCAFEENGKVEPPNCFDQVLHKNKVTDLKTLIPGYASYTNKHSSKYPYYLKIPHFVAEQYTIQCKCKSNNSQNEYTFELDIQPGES

T3: Pf41 D1D2 (residues 21-368), untagged (Plasmodium falciparum, UniProt Q8I1Y0 21-368)
T3 construct: Pf41, Plasmodium falciparum 6-cysteine protein, residues K21-S368 (D1 with the inserted-domain-like region ID, and D2); lacks the signal peptide and ten C-terminal residues; After TEV cleavage three residues, GAS, remain at the N-terminus as cloning artefacts; N-glycosylation sites kept; treated with PNGase F before crystallisation; also called Pf41 wildtype; source: Spodoptera frugiperda 21 …
T3 sequence (looked up): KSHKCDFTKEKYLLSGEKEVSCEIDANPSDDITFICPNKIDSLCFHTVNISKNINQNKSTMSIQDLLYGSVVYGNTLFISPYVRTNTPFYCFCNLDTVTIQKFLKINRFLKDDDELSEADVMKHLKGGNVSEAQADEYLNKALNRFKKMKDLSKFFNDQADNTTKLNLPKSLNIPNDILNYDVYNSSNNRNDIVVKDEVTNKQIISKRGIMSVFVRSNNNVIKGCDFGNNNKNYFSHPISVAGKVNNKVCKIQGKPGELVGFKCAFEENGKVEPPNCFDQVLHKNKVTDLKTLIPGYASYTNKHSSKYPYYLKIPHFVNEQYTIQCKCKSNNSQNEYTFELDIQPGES

T4: Pf41 D1D2 E340A (Plasmodium falciparum, UniProt Q8I1Y0 21-368, E340A)
T4 construct: Pf41, Plasmodium falciparum, residues K21-S368 (D1D2); source: Spodoptera frugiperda 21 cells, purified (Ni-IMAC, TEV cleavage, SEC); not shown: His8, N-terminal, cleaved
T4 sequence: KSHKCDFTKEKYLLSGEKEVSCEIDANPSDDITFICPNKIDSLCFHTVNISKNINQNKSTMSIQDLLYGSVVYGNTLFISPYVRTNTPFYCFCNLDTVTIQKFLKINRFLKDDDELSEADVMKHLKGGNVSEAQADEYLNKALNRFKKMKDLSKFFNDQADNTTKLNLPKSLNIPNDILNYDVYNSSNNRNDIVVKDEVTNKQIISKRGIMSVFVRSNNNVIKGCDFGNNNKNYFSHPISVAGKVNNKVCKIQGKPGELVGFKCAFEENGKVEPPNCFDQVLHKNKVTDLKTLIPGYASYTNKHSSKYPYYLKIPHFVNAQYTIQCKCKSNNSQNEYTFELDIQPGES

T5: Pf41 D1D2 E367A (Plasmodium falciparum, UniProt Q8I1Y0 21-368, E367A)
T5 construct: Pf41, Plasmodium falciparum, residues K21-S368 (D1D2); source: Spodoptera frugiperda 21 cells, purified (Ni-IMAC, TEV cleavage, SEC); not shown: His8, N-terminal, cleaved
T5 sequence: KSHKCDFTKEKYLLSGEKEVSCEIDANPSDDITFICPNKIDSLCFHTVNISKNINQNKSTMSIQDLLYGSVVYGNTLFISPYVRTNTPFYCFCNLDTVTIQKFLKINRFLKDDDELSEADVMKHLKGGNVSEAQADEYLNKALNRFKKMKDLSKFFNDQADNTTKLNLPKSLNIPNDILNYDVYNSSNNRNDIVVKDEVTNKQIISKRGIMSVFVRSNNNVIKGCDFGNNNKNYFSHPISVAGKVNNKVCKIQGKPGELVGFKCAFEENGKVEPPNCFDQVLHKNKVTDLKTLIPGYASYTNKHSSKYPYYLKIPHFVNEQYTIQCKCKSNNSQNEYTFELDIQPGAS

T6: Pf41 D1D2 F166L (Plasmodium falciparum, UniProt Q8I1Y0 21-368, F166 L)
T6 construct: Pf41, Plasmodium falciparum, residues K21-S368 (D1D2); source: Spodoptera frugiperda 21 cells, purified (Ni-IMAC, TEV cleavage, SEC); not shown: His8, N-terminal, cleaved
T6 sequence: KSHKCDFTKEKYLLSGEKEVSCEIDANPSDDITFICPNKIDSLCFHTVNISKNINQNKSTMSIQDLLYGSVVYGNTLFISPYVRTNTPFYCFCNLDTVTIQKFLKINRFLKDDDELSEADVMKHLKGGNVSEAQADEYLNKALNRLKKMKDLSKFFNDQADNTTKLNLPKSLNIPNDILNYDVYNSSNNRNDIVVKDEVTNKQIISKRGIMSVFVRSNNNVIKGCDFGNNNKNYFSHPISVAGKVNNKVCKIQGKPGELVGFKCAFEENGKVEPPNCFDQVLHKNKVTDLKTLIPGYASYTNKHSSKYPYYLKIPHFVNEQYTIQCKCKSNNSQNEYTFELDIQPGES


Tests used:
Conditions in all cases: both partners purified
[1] = biological target: T1, Pf41 D1D2 H336A; test: BLI; Octet RED96e; octa-histidine tagged Pf12 loaded on NTA sensors; untagged Pf41 wildtype or mutant 31-1000 nM; PBS pH 7.4, 0.1% BSA, 0.05% TWEEN-20, 25°C; read-out relative maximum response against wildtype
[2] = biological target: T2, Pf41 D1D2 N339A; test: as above
[3] = biological target: T3, Pf41 D1D2 (residues 21-368), untagged; test: as above
[4] = biological target: T4, Pf41 D1D2 E340A; test: as above
[5] = biological target: T5, Pf41 D1D2 E367A; test: as above
[6] = biological target: T6, Pf41 D1D2 F166L; test: as above
[7] = biological target: T7, Pf12 D1D2 (residues 28-304), untagged (Plasmodium falciparum, UniProt C6KSX0); test: BLI; Octet RED96e; nanobodies loaded on NTA sensors; untagged Pf12 or Pf41 (6-200 nM) or their domains in solution; PBS pH 7.4, 0.1% BSA, 0.05% TWEEN-20, 25°C; global 1:1 fit
T7 construct: Pf12, Plasmodium falciparum 6-cysteine protein, residues N28-S304 (domains D1 and D2); lacks the signal peptide and the GPI-anchor site; After TEV cleavage three residues, GAS, remain at the N-terminus as cloning artefacts; N-glycosylation sites kept; treated with PNGase F before crystallisation; also called Pf12 wildtype; source: Spodoptera frugiperda 21 cells, secreted into growth media, …

[8] = biological target: T8, Pf12 D2 (residues E174-S304) (Plasmodium falciparum, UniProt C6KSX0); test: as above
T8 construct: Pf12, Plasmodium falciparum, C-terminal 6-cys domain D2, residues E174-S304; also called Pf12 D2 domain; source: Spodoptera frugiperda 21 cells, purified by the same protocol as Pf12 D1D2; not shown: His8, N-terminal, cleaved

[9] = biological target: T9, Pf41 D1D2 (residues 21-368), untagged (Plasmodium falciparum, UniProt Q8I1Y0); test: as above
T9 construct: Pf41, Plasmodium falciparum 6-cysteine protein, residues K21-S368 (D1 with the inserted-domain-like region ID, and D2); lacks the signal peptide and ten C-terminal residues; After TEV cleavage three residues, GAS, remain at the N-terminus as cloning artefacts; N-glycosylation sites kept; treated with PNGase F before crystallisation; also called Pf41 wildtype; source: Spodoptera frugiperda 21 …

[10] = biological target: T10, Pf12 D1 (residues N28-L172) (Plasmodium falciparum, UniProt C6KSX0); test: as above
T10 construct: Pf12, Plasmodium falciparum, N-terminal 6-cys domain D1, residues N28-L172; also called Pf12 D1 domain; source: Spodoptera frugiperda 21 cells, purified by the same protocol as Pf12 D1D2; not shown: His8, N-terminal, cleaved

Row | Binder | binding result [1] | binding result [2] | binding result [3] | binding result [4] | binding result [5] | binding result [6] | binding result [7] | binding result [8] | binding result [9] | binding result [10]
1 | octa-histidine tagged Pf12 D1D2 (residues 28-304) (domain or fragment, Pf12, Plasmodium falciparum 6-cysteine protein, residues N28-S304 (domains D1 and D2); TEV-cleavable tag left on; loaded on NTA sensors; also called tagged wildtype Pf12; source: Spodoptera frugiperda 21 cells, secreted into growth media, purified as tagged protein (Ni-IMAC, SEC); not shown: His8, N-terminal, kept) NLTCDFNDVYKLEFHPNQQTSVTKLCNLTPNVLEKVTIKCGSDKLNYNLYPPTCFEEVYASRNMMHLKKIKEFVIGSSMFMRRSLTPNKINEVSFRIPPNMMPEKPIYCFCENKKTITINGSNGNPSSKKDIINRGIVEIIIPSLNEKVKGCDFTTSESTIFSKGYSINEISNKSSNNQQDIVCTVKAHANDLIGFKCPSNYSVEPHDCFVSAFNLSGKNENLENKLKLTNIIMDHYNNTFYSRLPSLISDNWKFFCVCSKDNEKKLVFTVEASISS | binds | binds | binds | binds | binds | binds |  |  |  | 
2 | nanobody H2 (VHH, alpaca, immunised with Pf12-Pf41 complex; Pf12-specific (D1 domain); source: E. coli WK6, periplasmic extract, purified (HisTrap, SEC)) VHH: QVQLQESGGGSVQAGGSLRLSCTTSRRTRNTHAMGWFRQAPGKEREFVAAISWIDSSTYYADSVKGRFTMSGGNARNTVYLQMNSLEPEDTAVYYCAAGSVVAGFWEEVGYDYWGQGTQVTVSS |  |  |  |  |  |  | binds | no binding | no binding | binds
